In the supplement of paper PMC11908140:

B1: library; numbered along this chain (parent)
chain: MRKPRAAVGSGHRKQAASQEGRQKHAKNNSQAKPSACDGLARQPEEVVLQASVSSYHLFRDVAEVTAFRGSLLSWYDQEKRDLPWRRRAEDEMDLDRRAYAVWVSEVMLQQTQVATVINYYTGWMQKWPTLQDLASASLEEVNQLWAGLGYYSRGRRLQEGARKVVEELGGHMPRTAETLQQLLPGVGRYTAGAIASIAFGQATGVVDGNVARVLCRVRAIGADPSSTLVSQQLWGLAQQLVDPARPGDFNQAAMELGATVCTPQRPLCSQCPVESLCRARQRVEQEQLLASGSLSGSPDVEECAPNTGQCHLCLPPSEPWDQTLGVVNFPRKASRKPPREESSATCVLEQPGALGAQILLVQRPNSGLLAGLWEFPSVTWEPSEQLQRKALLQELQRWAGPLPATHLRHLGEVVHTFSHIKLTYQVYGLALEGQTPVTTVPPGARWLTQEEFHTAAVSTAMKKVFRVYQGQQPGTCMGSKRSQVSSPCSRKKPRMGQQVLDNFFRSHISTDAHSLNSAAQ

Variants of: B1
Assay: 8OG:A repair function score (normalized; synonymous = 0, nonsense = -1) (normalized log-likelihood score); higher = more repair activity (WT-like)
Conditions: with 8OG:A DNA repair reporter (GFP) in HEK-293 MUTYH KO cells
Summary of the method: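 With 10 pg/ml doxycycline, MUTYH knockout HEK-293 cells carrying lentiviral MUTYH cDNA NNN codon-scan libraries were co-transfected with mCherry and an 8OG:A GFP repair reporter. Viable mCherry+ cells were sorted into GFP+ (repair) and GFP− bins at 72 h, three replicates per tile, and tile amplicons were sequenced. Per-tile Rosace fitness scores were then normalized into a repair function score anchored on synonymous and nonsense distributions. Medians were fixed at 0 for synonymous and -1 for nonsense, excluding variants under 300 counts per million at the start.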

8OG:A repair function score: each site, then its substitutions
E452: T 0.0217 | R -0.0533 | P -0.856 | G -0.228 | C -0.0884 | S -0.0485 | M -0.205 | K -0.211 | D -0.0961 | W -0.631 | V -0.351 | L -0.252 | I -0.47 | F -0.387 | H -0.275 | N -0.395 | Q -0.335 | Y -0.442 | A -0.387
Q450: T 0.0482 | H 0.0291 | R 0.0701 | W -0.011 | A -0.0533 | S -0.114 | C -0.0453 | V 0.073 | Y 0.286 | K 0.354 | E 0.156 | P -0.118 | G -0.0458 | I -0.0986 | M -0.0723 | L -0.12 | F 0.013 | N 0.172 | D -0.113
S459: D -0.823 | P -0.197 | R -1.13 | C -0.291 | H -0.136 | Y -0.268 | N -0.679 | M -0.693 | E -1.11 | A -0.218 | L -0.866 | V -0.746 | W -0.631 | I -0.53 | T -0.392 | K -1.03 | G -0.212 | F -0.45 | Q -0.749
T460: K -0.0077 | S -0.019 | Q -0.131 | D -0.312 | V -0.029 | E -0.212 | F -0.157 | C -0.0915 | L -0.235 | R -0.0566 | G -0.0856 | I -0.102 | W -0.305 | M -0.152 | P -0.347 | N -0.00346 | Y -0.219 | A -0.00746 | H -0.38
V458: K -0.57 | T -0.214 | G -0.853 | R -0.663 | I -0.0811 | L -0.294 | A -0.667 | M -0.204 | Q -0.711 | N -0.786 | C -0.27 | S -0.192 | H -0.592 | W -0.709 | Y -0.724 | F -0.4 | D -0.952 | P -0.535 | E -0.975
G444: K -0.0942 | Q -0.113 | W -0.444 | N -0.198 | T -0.00488 | M -0.298 | R -0.119 | A -0.284 | S -0.291 | V -0.448 | H -0.155 | I -0.373 | P -0.189 | D -0.275 | E -0.0932 | Y -0.204 | F -0.32 | C -0.242 | L -0.255
W447: H -0.881 | F -0.355 | R -0.794 | Q -1.16 | N -0.921 | L -0.567 | S -1.01 | P -0.941 | G -1.04 | Y -0.455 | D -1.18 | C -1.09 | V -0.846 | E -1.14 | A -0.968 | M -0.801 | T -1.01 | I -0.784 | K -0.937
A461: L -0.0454 | K -0.813 | E -0.842 | N -0.222 | H -0.545 | F -0.265 | D -0.732 | I -0.152 | C -0.0899 | G 0.00127 | M -0.276
L448: N -0.42 | T -0.164 | G -0.516 | I -0.0362 | P -0.895 | F -0.205 | K -0.743 | V -0.117 | S -0.184 | W -0.658 | C -0.0248 | E -0.411 | Y -0.324 | H -0.0456 | M 0.207 | Q -0.202 | D -0.727 | R -0.341 | A -0.105
F453: A -0.66 | H -0.758 | W -0.274 | D -1.22 | N -1.25 | V -0.184 | M -0.51 | Y -0.106 | G -0.893 | Q -0.887 | I -0.334 | T -0.694 | C -0.791 | S -0.421 | P -0.896 | R -1.09 | L -0.306 | K -0.87 | E -1.1
A445: E -0.567 | C 0.0578 | M -0.292 | H -0.71 | Q -0.575 | G -0.0675 | K -0.464 | S -0.0458 | I -0.318 | L -0.363 | V -0.109 | D -1.09 | P -0.65 | F -0.672 | T -0.288 | N -0.506 | W -0.606 | Y -0.693 | R -0.53
R446: W -0.356 | F -0.449 | I -0.193 | C -0.342 | H -0.177 | D -0.442 | M -0.121 | K -0.277 | L -0.202 | A -0.143 | E -0.312 | P -1.13 | G -0.67 | T -0.232 | Q -0.119 | S -0.255 | V -0.116 | Y -0.414 | N -0.508
H454: V -0.00673 | P -0.139 | W 0.536 | M -0.158 | I -0.184 | Q -0.0422 | N 0.24 | F -0.268 | K -0.0092 | C 0.0357 | T 0.153 | A 0.182 | L -0.234 | R -0.00791 | G -0.0392 | S -0.168 | E -0.068 | D -0.376 | Y -0.087
A457: F -0.356 | S -0.432 | E -0.495 | P -0.15 | C -0.467 | L -0.583 | Q -0.402 | V -0.205 | K -0.815 | I -0.537 | W -0.671 | N -0.58 | M -0.585 | G -0.183 | R -0.672 | T -0.533 | Y -0.48 | H -0.398 | D -0.44
T449: W -0.634 | V -0.286 | Y 0.0178 | C -0.0406 | R 0.00957 | S 0.084 | A 0.0699 | K -0.144 | I -0.282 | P -0.0904 | F -0.363 | M -0.0649 | G -0.132 | D -0.211 | H -0.131 | L -0.0459 | Q -0.0362 | N -0.203 | E -0.0743
T455: E -0.119 | K -0.247 | P -0.714 | Y -0.209 | C 0.318 | A -0.141 | M -0.111 | L -0.171 | N 0.0652 | S 0.128 | V -0.122 | G -0.211 | D -0.394 | R -0.0505 | F -0.273 | Q 0.174 | I 0.0349 | W -0.419 | H 0.0572
E451: Y 0.131 | G -0.0413 | H 0.0926 | D -0.178 | R 0.0453 | N 0.26 | A -0.0912 | V -0.135 | M 0.0404 | S -0.131 | K -0.241 | P -0.158 | T -0.12 | Q -0.157 | W -0.143 | L -0.179 | C -0.198 | I -0.186 | F -0.282
A456: V -0.16 | D -0.523 | R -0.498 | L -0.287 | W -0.531 | F -0.61 | H -0.479 | M -0.328 | S -0.267 | C -0.168 | G -0.246 | Y -0.476 | E -0.405 | Q -0.514 | P -0.814 | T -0.365 | K -0.248 | N -0.487 | I -0.12
